B1: DKK1: Dickkopf-1, secreted Wnt antagonist protein that binds Wnt co-receptor LRP6; used purified, in conditioned media or retrovirally expressed with HA tag (protein, UniProt O94907 32-266, looked up)
Dickkopf-related protein 1: TLNSVLNSNAIKNLPPPLGGAAGHPGSAVSAAPGILYPGGNKYQTIDNYQPYPCAEDEECGTDEYCASPTRGGDAGVQICLACRKRRKRCMRHAMCCPGNYCKNGICVSSDQNHFRGEIEETITESFGNDHSTLDGYSRRTTLSSKMYHTKGQEGSVCLRSSDCASGLCCARHFWSKICKPVLKEGQVCTKHRRKGSHGLEIFQRCYCGEGLSCRIQKDHHQASNSSRLHTCQRH
modifications: HA tag in some uses
B2: FRP1: human secreted Frizzled Related Protein 1, Wnt antagonist; expressed from pBabe-derived retrovirus with carboxy-terminal HA tag (protein, UniProt Q8N474 32-314, looked up)
Secreted frizzled-related …: SEYDYVSFQSDIGPYQSGRFYTKPPQCVDIPADLRLCHNVGYKKMVLPNLLEHETMAEVKQQASSWVPLLNKNCHAGTQVFLCSLFAPVCLDRPIYPCRWLCEAVRDSCEPVMQFFGFYWPEMLKCDKFPEGDVCIAMTPPNATEASKPQGTTVCPPCDNELKSEAIIEHLCASEFALRMKIKEVKKENGDKKIVPKKKKPLKLGPIKKKDLKKLVLYLKNGADCPCHQLDNLSHHFLIMGRKVKSQYLLTAIHKWDKKNKEFKNFMKKMKNHECPTFQSVFK
modifications: C-terminal HA tag
notes: human secreted Frizzled Related Protein 1, Wnt antagonist; expressed from pBabe-derived retrovirus with carboxy-terminal HA tag

Legend:
[1] = test system: TCF dependent transcription; experiment: TOP-Glow/FOP-Glow TCF reporter assay in PAI tumor cells; type: cell-based, human; conditions: PAI ovarian tumor cells, 48 hours
Experimental: Wnt signaling activates TCF dependent transcription, which can be monitored by reporters containing TCF responsive elements (Morin et al., (1997) Science 275:1787-1790). TCF responsive elements operably linked to a reporter (TOP-Glow, wild type, or FOP-Glow, mutant) were analyzed for transcriptional activity in PAI tumor cells in the presence or absence of DKK1. Ovarian tumor PAI cells plated at 3×10^5 per well in 6-well plates were co-transfected with 1 μg of either the TOP-glow or FOP-glow plasmids (Upstate Biotechnology, Waltham, Mass.) and 0.001 μg of the Renilla control plasmid (pRL-CMV) utilizing Fugene (Roche) according to the manufacturer's instructions. After 48 hours cells were lysed and analyzed utilizing the Dual Luciferase Reporter Assay system (Promega, Madison, Wis.). […] These findings further established that TCF dependent transcription was constitutively activated in these tumor cells by an autocrine Wnt mechanism.

uncomplexed β-catenin [2] = experiment: GST-E-cadherin binding assay / immunoblot of uncomplexed β-catenin, Wnt-3a expressing NIH3T3 cells; type: cell-based, mouse; conditions: NIH3T3 cells stably expressing Wnt-3a; purified DKK1 (10 nM)
Experimental: β-catenin levels were assessed using the GST-E-cadherin binding assay, which has been previously described (Bafico et al., (1998) Oncogene 16:2819-2825). Briefly, bacterially expressed GST-E-cadherin was purified with glutathione-Sepharose beads and incubated with 1 mg of each cell lysate. The GST-E-cadherin/[…]-catenin complex bound to the beads was recovered by centrifugation and analyzed by SDS-PAGE followed by immunoblotting. The uncomplexed β-catenin was detected using a monoclonal antibody to β-catenin (Transduction Laboratories). Unphosphorylated β-catenin was detected with a monoclonal antibody specific for β-catenin dephosphorylated at residues 27-37 (Alexis, Läufelfingen, Switzerland). FRP1-HA and DKK1-HA were detected with an anti-HA monoclonal antibody (Hybridoma Center, Mount Sinai School of Medicine, New York). […]

[3] = test system: TCF-dependent reporter activity; experiment: TOP-Glow/FOP-Glow TCF reporter assay in HCT116 wild type β-catenin allele clone; type: cell-based, human
Experimental: TCF responsive elements operably linked to a reporter (TOP-Glow, wild type, or FOP-Glow, mutant) were analyzed for transcriptional activity in […]. HCT116 (ATCC No. CCL-247) cells containing the wild type β-catenin allele were plated at 3×10^5 per well in 6-well plates and co-transfected with 1 μg of either the TOP-glow or FOP-glow plasmids (Upstate Biotechnology) and 0.001 μg of the Renilla control plasmid (pRL-CMV) utilizing FuGene® (Roche) according to the manufacturer's instructions. After 48 hours cells were lysed and analyzed utilizing the Dual Luciferase Reporter Assay system (Promega).

MYC = experiment: Northern blot of Myc in HCT116 clone; type: cell-based, human; conditions: HCT116 wild type allele-containing clone
Description: (§1) We next assessed the effects of FRP1 inhibition on the expression of Id2, Cyclin D1 and Myc, known targets of Wnt/β-catenin in colorectal cancer (Rockman et al. (2001) J. Biol. Chem. 276:45113-45119; Tetsu and McCormick (1999) Nature 398:422-426; He et al. (1998) Science 281:1509-1512). RNAs were extracted from HCT116 parental cells, and either wild type or mutant β-catenin allele containing clones transfected with either vector control or FRP1-HA using Triazol (Invitrogen). The RNAs were separated by (1%) agarose gel electrophoresis and transferred to a nylon membrane (Hybond®, Pharmacia). Probes were labeled by the Random Prime Labelling System method (Amersham Biosciences), and hybridization was performed overnight utilizing the Hybrisol I solution (Serologicals Corporation) according to the manufacturer's instructions. Normalization was performed utilizing a commercial human GADPH control probe (BD Biosciences Clontech).

uncomplexed β-catenin [4] = experiment: Uncomplexed β-catenin in HCT116 wild type or mutant β-catenin allele clones; type: cell-based, human; conditions: FRP1-HA transfection
Experimental: β-catenin levels were assessed using the GST-E-cadherin binding assay, which has been previously described (Bafico et al., (1998) Oncogene 16:2819-2825). Briefly, bacterially expressed GST-E-cadherin was purified with glutathione-Sepharose beads and incubated with 1 mg of each cell lysate. The GST-E-cadherin/[…]-catenin complex bound to the beads was recovered by centrifugation and analyzed by SDS-PAGE followed by immunoblotting. The uncomplexed β-catenin was detected using a monoclonal antibody to β-catenin (Transduction Laboratories). Unphosphorylated β-catenin was detected with a monoclonal antibody specific for β-catenin dephosphorylated at residues 27-37 (Alexis, Läufelfingen, Switzerland). FRP1-HA and DKK1-HA were detected with an anti-HA monoclonal antibody (Hybridoma Center, Mount Sinai School of Medicine, New York).
HCT116 parental cells and clones expressing either the wild type or mutant β-catenin allele were transfected with FRP1-HA and subjected to the GST-E-cadherin binding assay (described in Example 3) to examine the effect of FRP1 on uncomplexed β-catenin levels. Uncomplexed β-catenin was detected with anti-β-catenin antibody. The levels of FRP1 in the lysates were detected with an anti-HA antibody. […]

ID2 = experiment: Northern blot of Id2 in HCT116 clones; type: cell-based, human; conditions: HCT116 wild type β-catenin allele clone
Description: as §1

| Molecule | level of endogenous TCF dependent signaling [1] | up-regulated β-catenin levels (uncomplexed β-catenin [2]) | TCF-dependent reporter activity [3] | expression of Myc (MYC) | uncomplexed β-catenin levels (uncomplexed β-catenin [4]; HCT116 clone containing only the mutant β-catenin allele) | β-catenin levels (uncomplexed β-catenin [4]; HCT116 wild type β-catenin allele-containing clone) | Id2 transcript level (ID2) |
| --- | --- | --- | --- | --- | --- | --- | --- |
| B1 | striking reduction | striking inhibition of up-regulated β-catenin levels |  |  |  |  |  |
| B2 |  |  | able to inhibit | dramatically inhibited | little if any effect | dramatic reduction | reduction |
